Results from the supplement of paper PMC9942255.

Test system: Bacillus subtilis DB104 (SP-AmyQ fusion secretion)
Assay: AmyQ secretion efficiency, weighted average sort bin (1 = best secretion, 10 = worst) (bin number (weighted average, 1-10)); higher = lower secretion efficiency
Method in brief: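 The secretion score was taken as the read-frequency-weighted mean bin number, normalised to beads per bin, with low-abundance sequences excluded. Bins came from large-particle flow cytometry sorting of occupied alginate beads (~65 nL, about 0.3 cells each, with fluorescein-starch) into 10 equally populated groups by green/red fluorescence ratio after about 13 h at room temperature and nile red staining. The cells were a B. subtilis DB104 library with mature AmyQ fused to designed signal peptides, integrated at amyE, and each bin's amplicons were Illumina-sequenced.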

Sequence	AmyQ secretion efficiency
MKKWLIIAVSLAIAIVLFMYTKGEAKAAED	2.66
MFNRLFRVCFLAALIMTLPNSVYAQKP	2.44
MKKWIYVVLVLSIAGIGGFSDHAASS	6.49
MKVLLSALLLLLFAFEPSASGAKR	4.45
MRNLTKTKRRKAGLCTAAQMVFVTHASAEES	6.94
MKVPKTMLLSTAAGLLLSLTATSWSAHYV	6.27
MRMLWRMMISLALCGLALTLAPCAQAAEP	1.79
MSGTTSIILFSTLALAAGMTAAAAGGAGTIHAQQP	3.5
MKRIRIPMTLALGAALTIAPLSFPATVPGAGGTTASAEEN	4.38
MLKRLIAPMLLSAASLAFFAMSGSAQAAAY	3.75
MKKRLIAPMLLSAASLAFFAMSGSAQEAAY	6.78
MKWMCSICCAAVLLAGGAWQAEAV	3.41
MKRFILVLSFLSIIVLVTSASSFLAYPIQTNASPM	5.04
MFNRLFRVCFLAALIMAFDDDNSVYAQKP	2.33
MKKQIITATTAVVLGSTLFAGARSAQSI	3.67
MKKWMITIAMLILAGIALFVFISPSKSHKT	6.65
MRMLWRSKRLCGLALTLAPCAQAAEP	6.7
MKVLLSALLLLLFAFAASASGKKL	6.06
MFMKSGMEQAVSVLLLLSRLPVQASLTSE	9.96
MKSKWMSGLLLVAVGFSFTQVMVHIGET	5.32
MIAYFGKCRKTRTIMFLGVLFGMQQANHG	3.14

Sequence	AmyQ secretion efficiency
MRKKLKWLSFLLGFIILLFLFKYQQSNNDS	6.25
MFKKHTISLLIIFLLASAVLAKPSEAHTV	2.57
MRKWYFILLAGVLTSVILAFVYDKTKANDD	6.75
MFKKHTISLLIIFLLASAVLAKPIEPHTV	7.19
MGMKKKSRTGVASAALGLALVGGGTWAAFN	5.34
MKKVLMAFIICLSLILSVLAAPPSGAKAKRR	2.43
MTMLRKIIGWILLLCIIPLFAFTVIESGKEV	6.44
MPIKKKVMMCLAVTLVFGSMRRKTLTNSGGFKE	7.75
MLLNLAAGLTASAIVGTTLVVTPAEAATI	6.11
MKKAFILSAAAAVGLFTFGGVQQFSAKEL	5.1
MGLGKKLSVAVAASFMSLSISLPGVQHAEG	3.41
MKKMLGKLLITAGILVFFAVVVKDVFSAGL	3.11
MKRIRIPMTLALGAALTIAPLSFTSAEEN	3.52
MKKGIIRFLLVSFVLFFALSTGITGVQDAPA	6.75
MKLKKRVSMFLVALTMCGGLFVRRRKRAKAVKT	6.98
MPYLKRVLLLLVTGLFMSLAVTATASAQTG	1.16
MKNMSCKLRRRRKRFFSFLTIGPLAHAQNS	7.37
MLCVMMLLFSAIASFPVSAQRKDQ	6.75
MLKKIALTLCPAIVGSLLFFTAPASGHVS	2.72
MKSKGSIMACLILFSFTTFINTETISAFSN	4.68
MKKIWIGMLAAAVLLLMVPKVGLADAA	3.24

Sequence	AmyQ secretion efficiency
MLCVMMLLFSAIASFPVSPQAKDQ	6.39
MKRMIVRMTKRKRRRCLAFSSFSASARAASE	8.6
MKLAKRVSALTPSTTLAITAKCKEL	7.76
MRKKRTVITCVMAASLTLGSLLPAGYATAKED	6.07
MGLGKKLSVAVAASFMSLSISLPGSQAAEG	2.3
MKKRLIAPMLLSAASLAFFAMSGSSGAAGPSPAAQAAAY	4.83
MKRIRIPMTLALGAALTIAPLTVATASFASAEEN	4.63
MKLSVKIAGVLTVAAAAMTAKMYATHKGN	6.71
MKKRFSLKKRRGLLFGLTSPAFAAEK	8.62
MLKKIALTLCPAIVGSLLFFTAPASARKR	6.88
MKKSSYCSYQRQVILSGVALTQLS	7.04
MKVLLSALLLLLFAFEPSFSGKKL	8.07
MKSKGSIMACLILFSFTITTFINTETISAFSD	6.02
MPYLKRVLLLLVTGLFMSLFAVTATASEQTG	1.36
MKKVLMAFIICLSLILDVLAAPPSGAKAESV	1.95
MRKKHKTISLLIIFLLASAVLAKPIEAHTV	2.55
MKLWMRKTLVVLFTIVTFGLVSPPAALMGDKP	4.12
MKKKRLLAGALTATVLFGTCAVDVPGIISPKTAEAASQ	1.66
MKKWMITIAMLILAGIALFVFISPTSSSTTFLKSHKT	7.57
MAIIIAIIAAVIVIAALITFNVINASPG	9.99
MPIKKKVMMCLAVTLVFGSMSFPTLTNSGGDED	6.4
